Reference: patent US8637043B2, “Compositions useful as ligands for the formyl peptide receptor like 1 receptor and methods of use thereof” (Chemocentryx, Inc., priority 2001, dated 2014)
“And” between values parts separate entries of the source, which are not always exact repeats. Equal values may be shown once.

How the values were obtained:
[1] = test system: human monocytes; assay: Calcium flux in human monocytes; assay type: cell-based
Description: (§1) Ca^2+ mobilization responses were performed using the intracellular ratiometric fluorescent dye, lndo-1. Cells were loaded with Indo-1/AM (3 μM; Molecular Probes, Eugene, Oreg.) in culture medium (45 min, 20° C., 10^7 cells/ml). After dye loading, cells were washed once with 10 ml PBS) and resuspended at 10^6 cell/ml in HBSS containing 1% FBS. Cytosolic [Ca^2+] release was determined using excitation at 350 nm using a Photon Technology International fluorimeter (excitation at 350 nm, ratioed dual emission at 400 and 490 nm).
(§2) The human recombinant chemokines, leukotactin, MlP-1α, three known CKβ8 variants CKβ8(1-99), CKβ8(25-99), CKβ8-1(1-116) and a novel NH2-terminal truncated form of CKβ8-1, CKβ8-1 (25-116) were obtained from R&D Systems (Minneapolis, Minn.). Human monocytes were generated from buffy coats (Stanford Blood Center, Palo Alto, Calif.) following a standard protocol. Briefly, PBMC were isolated by standard density gradient centrifugation (Ficoll-Paque-Plus, Pharmacia). Monocytes were purified using CD14 Microbeads (Miltenyi, Auburn, Calif.) magnetic positive selection. Human neutrophils were isolated from fresh peripheral blood from healthy individuals by gradient centrifugation on Ficoll-Hypaque (Hyclone, Calif.).
The activity of the CCL23 variants was tested on freshly prepared human monocytes and neutrophils using the calcium flux test described in Example 1.
(§3) Human monocytes were either generated from buffy coats (Stanford Blood Center, Palo Also, Calif.) or from fresh blood of healthy individuals following a standard protocol. Briefly, PBMC were isolated by a Ficoll-Paque gradient centrifugation (Ficoll-Paque-Plus, Pharmacia). Monocytes were purified by CD14 Microbeads (Miltenyi) magnetic positive selection. Human neutrophils were isolated from fresh blood by dextran sedimentation and gradient centrifugation Ficoll-Paque gradient centrifugation. All cells were washed and resuspended (1×10^7/ml) in RPMI medium with 10% FBS.
as §1, with “an” for “the”, “Indo-1.” for “lndo-1.”, “Probes (Eugene, Oreg.))” for “Probes, Eugene, Oreg.)”, “cells/mi).” for “cells/ml).”, “(10” for “with 10”

[2] = test system: immature Dendritic Cells; assay: Calcium mobilization, immature dendritic cells; assay type: cell-based, human
Description: (§4) Human recombinant CKβ8-1(25-116) chemokine was obtained from R&D Systems (Minneapolis, Minn.). The peptide SHAAGtides SEQ ID NO:1 and SEQ ID NO:6 and a control protein (the reverse sequence of SEQ ID NO:1) were synthesized and HPLC-purified using routine techniques as described in Sambrook et al., 1989, and Ausubel et al., 1999.
(§5) Immature DCs were derived by culturing CD14+ monocytes in the presence of GM-CSF and IL4. Briefly, monocytes were cultured in a T-175 flask at 10^6 cells/ml in RPMI/10% FCS. Recombinant human GM-CSF and IL4 were added on day 0, 2, 4 and 6 to a final concentration of 1000 u/ml and 500 u/ml, respectively. Cells were harvested on day 7 as immature DCs and characterized for surface protein expression by FACS analysis. DC maturation was carried out by culturing day 6 immature DCs in macrophage-conditioned medium (MCM). Briefly, day 6 immature DCs were harvested by centrifugation and resuspended in MCM at 10^6 cells/ml. The medium was supplemented with 1000 u/ml of GM-CSF and 500 u/ml IL4. After three more days of culture, cells were harvested as mature DCs and characterized by surface protein expression flow cytometry.
as §1, with “an” for “the”, “Indo-1.” for “lndo-1.”, “Probes (Eugene, Oreg.))” for “Probes, Eugene, Oreg.)”, “cells/mi).” for “cells/ml).”, “(10” for “with 10”

[3] = test system: human neutrophils; assay: Calcium flux in human neutrophils; assay type: cell-based; conditions: human neutrophils
Description: as §1, §2, §3
as §1, with “an” for “the”, “Indo-1.” for “lndo-1.”, “Probes (Eugene, Oreg.))” for “Probes, Eugene, Oreg.)”, “cells/mi).” for “cells/ml).”, “(10” for “with 10”

[4] = test system: mature Dendritic Cells; assay: Calcium mobilization, mature dendritic cells; assay type: cell-based, human
Description: as §4, §5
MCM was prepared as follows: PBMCs isolated from buffy coat were incubated at 37° C. in a plastic flask pre-coated with 10 mg/ml human IgG (Sigma, St Louis, Mo.) for 30 minutes. After 30 minutes, non-adherent cells were removed and adherent cells were washed three times with DPBS, then cultured in RPMI/10% human serum. Conditioned-medium was collected after 24 hours. TNF-α concentration, which is critical for DC maturation, was determined by using a TNF-α ELISA kit (R&D Systems, Minn.). The final TNF-α level in MCM was adjusted to 50 u/mi by mixing with RPMI/10% human serum, and was stored at −80 freezer until use.
as §1, with “an” for “the”, “Indo-1.” for “lndo-1.”, “Probes (Eugene, Oreg.))” for “Probes, Eugene, Oreg.)”, “cells/mi).” for “cells/ml).”, “(10” for “with 10”

[5] = test system: human neutrophils; assay: Migration assay (ChemoTx), human neutrophils; assay type: cell-based; conditions: 90 min, 100 nM
Description: Migration assays were performed on monocytes and neutrophils. Human monocytes and neutrophils (prepared as in Exampe 2) were harvested and resuspended in chemotaxis medium (CM). The CM consisted of Hank's buffered salt solution (Gibco, Mass.) containing CaCl2 (1 mM) and MgSO4 (1 mM) with added 0.1% BSA (Sigma, St. Louis, Mo.). The assays were performed in 96-well ChemoTx® microplates (Neuroprobe, Mass.). […] After incubation for 90 min (37° C., 100% humidity, 5% CO2), cells were removed from the upper surface of the filter by scraping. Cells that migrated into the lower chamber were quantified using the Quant cell proliferation assay kit (Molecular Probes, Oreg.).
The above peptides were prepared as in previous examples.

[6] = test system: monocytes; assay: Cross-desensitization with leukotactin, monocytes; assay type: cell-based, human
Description: (§6) In cross-desensitization tests tests, cells were stimulated sequentially with leukotactin and then the chemokines CKβ8(1-99), CKβ8(25-99), CKβ8-1(1-116), and CKβ8-1(25-116). On HEK293-CCR1 transfectants (prepared as in Example 1), leukotactin induced similar patterns of receptor desensitization to all variants.
(§7) Similar receptor cross-desensitization tests were performed using both monocytes and neutrophils (prepared as in Example 2).

[7] = test system: human monocytes; assay: Migration assay (ChemoTx), human monocytes; assay type: cell-based; conditions: 90 min, 1-100 nM
Description: Migration assays were performed on monocytes and neutrophils. Human monocytes and neutrophils (prepared as in Exampe 2) were harvested and resuspended in chemotaxis medium (CM). The CM consisted of Hank's buffered salt solution (Gibco, Mass.) containing CaCl2 (1 mM) and MgSO4 (1 mM) with added 0.1% BSA (Sigma, St. Louis, Mo.). The assays were performed in 96-well ChemoTx® microplates (Neuroprobe, Mass.). Leukotactin, MlP-1α and chemokines (CKβ8(1-99), CKβ8(25-99), CKβ8-1(1-116) or CKβ8-1(25-116), prepared as in Example 1) were added to the lower wells (final volume 29 μL), and 20 μL of cell suspension (5×10^6 cells/mL for monocytes; 2.5×10^6 cells/mL for neutrophils) added to the polycarbonate filters (5 μm pore size for monocytes; 3 μm pore size for neutrophils). After incubation for 90 min (37° C., 100% humidity, 5% CO2), cells were removed from the upper surface of the filter by scraping. Cells that migrated into the lower chamber were quantified using the Quant cell proliferation assay kit (Molecular Probes, Oreg.).
The chemotactic activity on human monocytes and neutrophils of chemokines: CKβ8(1-99), CKβ8(25-99), CKβ8(1-116) and CKβ8(25-116); W peptides 1 and 2 and the SHAAGtide sequences SEQ ID NO:1 and SEQ ID NO:2 was determined in migration assays. The above peptides were prepared as in previous examples. The migration assays were performed in 96-well CHEMOTX® microplates (Neuroprobe) using the protocol described in Example 5.

[8] = test system: neutrophils; assay: Cross-desensitization with leukotactin, neutrophils; assay type: cell-based, human
Description: as §6, §7

[9] = target: monocytes; assay: 125I-MIP-1α binding competition, monocytes; parameters: species or system human; conditions: Monocytes
Description: The binding characteristics of CCL23 variants was compared in human CCR1 expressing cells. The ability of MIP-1α and the CCL23 variants CKβ8(1-99), CKβ8(25-99), CKβ8-1(1-116) and CKβ8-1(25-116) to compete with ^125I-MIP-1α binding was investigated in HEK293-CCR1 cells (prepared as in Example 1). The cells were incubated with ^125I-labeled MIP-1α (final conc. {dot over (˜)}0.05 nM) in the presence of unlabeled chemokine (3 hours at 4° C.: 25 mM HEPES, 140 mM NaCl, 1 mM CaCl2, 5 mM MgCl2 and 0.2% BSA, adjusted to pH 7.1). Reactions mixtures were aspirated onto PEI-treated GF/B glass filters using a cell harvester (Packard). The filters were washed twice (25 mM HEPES, 500 mM NaCl, 1 mM CaCl2, 5 mM MgCl2, adjusted to pH 7.1). Scintillant (MicroScint-10; 35 μl) was added to dried filters and the filiters counted in a Packard Topcount scintillation counter. Data were analyzed and plotted using Prism software (GraphPad Software, San Diego, Calif.).
(§8) Simiar binding competition tests were conducted on monocytes and neutrophils. These cells were prepared as in Example 2.

[10] = target: T1, CCR1 (Homo sapiens, UniProt P32246); assay: 125I-MIP-1α binding competition, HEK293-CCR1 cells; conditions: HEK293-CCR1, 3 hours at 4° C.
T1 construct: full length cDNA encoding CCR1 was cloned by the polymerase chain reaction (PCR) from genomic DNA isolated from human peripheral blood cells; expressed in transfected cells; pcDNA3.1 vector)
T1 sequence (P32246 1-355): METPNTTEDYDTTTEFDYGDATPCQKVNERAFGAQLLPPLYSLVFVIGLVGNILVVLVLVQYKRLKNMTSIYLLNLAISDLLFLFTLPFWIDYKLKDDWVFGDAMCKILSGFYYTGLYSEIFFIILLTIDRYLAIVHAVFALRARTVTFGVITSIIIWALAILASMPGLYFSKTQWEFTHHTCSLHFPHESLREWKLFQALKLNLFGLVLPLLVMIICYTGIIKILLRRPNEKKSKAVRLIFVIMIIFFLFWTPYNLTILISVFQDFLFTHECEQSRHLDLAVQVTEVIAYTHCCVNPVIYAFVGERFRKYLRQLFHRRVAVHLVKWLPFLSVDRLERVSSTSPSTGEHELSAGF
Description: The binding characteristics of CCL23 variants was compared in human CCR1 expressing cells. […] Reactions mixtures were aspirated onto PEI-treated GF/B glass filters using a cell harvester (Packard). The filters were washed twice (25 mM HEPES, 500 mM NaCl, 1 mM CaCl2, 5 mM MgCl2, adjusted to pH 7.1). Scintillant (MicroScint-10; 35 μl) was added to dried filters and the filiters counted in a Packard Topcount scintillation counter. Data were analyzed and plotted using Prism software (GraphPad Software, San Diego, Calif.).

[11] = test system: neutrophils; assay: MIP-1α binding, neutrophils; parameters: species or system human
Description: as §8

With “Gly Ala Ala His Ser Leu Thr Met Gin Pro Gly lie Lys Arg Arg Trp Leu Met (GAAHSLTMQPGIKRRWLM) [Control peptide (SEQ ID NO: 33), reference compound]” the calcium flux ([1]; human monocytes, Example 8) was “No significant calcium flux”, the calcium flux [2] was “No significant calcium flux” and the calcium flux ([3]; Example 8) was “No significant calcium flux”. The calcium flux [4] was “No significant calcium flux”.

B1: leukotactin: human recombinant chemokine, CCR1 agonist (protein, listed as Homo sapiens)
chain: SFHFAADCCTSYISQSIPCSLMKSYFETSSECSKPGVIFLTKKGRQVCAKPSGPGVQDCMKKLKPYSI
With B1 the migration of neutrophils [5] was “none of the known CCR1 ligands including leukotactin and MlP-1α was active” and the calcium flux ([3]; 100 nM) was “induced a calcium flux”.

B2: CKβ8(1-99): known CKβ8 (CCL23) variant, human recombinant chemokine from R&D Systems (protein, listed as Homo sapiens)
chain: RVTKDAETEFMMSKLPLENPVLLDRFHATSADCCISYTPRSIPCSLLESYFETNSECSKPGVIFLTKKGRRFCANPSDKQVQVCMRMLKLDTRIKTRKN
For B2, the “desensitization by leukotactin prestimulation” value [6] was “completely desensitized”, the calcium release ([1]; freshly prepared human monocytes, up to 250 nM) was “poor activity” and the migration of monocytes [7] was “moderate activity”. The “desensitization by leukotactin prestimulation” value [8] was “inactive”, the calcium flux ([3]; 100 nM) was “neither MlP-1α nor CKβ8(1-99), CKβ8(25-99) or CKβ8(1-116) induced a calcium flux” and the IC50 [9] was 10 nM and 10.3 nM.

B3: MIP-1α: macrophage inflammatory protein, human recombinant chemokine, CCR1 ligand (protein, listed as Homo sapiens)
chain: SLAADTPTACCFSYTSRQIPQNFIADYFETSSQCSKPGVIFLTKRSRQVCADPSEEWVQKYVSDLE
B3 was tested, and the IC50 [10] was 0.54 nM, the “MIP-1α binding to neutrophils” value [11] was “does not bind neutrophils” and the migration of neutrophils [5] was “none of the known CCR1 ligands including leukotactin and MlP-1α was active”. The calcium flux ([3]; 100 nM) was “neither MlP-1α nor CKβ8(1-99), CKβ8(25-99) or CKβ8(1-116) induced a calcium flux” and the IC50 [9] was 0.27 nM.
